Measurements as given in US20260092093A1.

How the values were obtained:
[1] = target: T1, hIL-18 receptor (hIL-18Rα and hIL-18Rβ) (human) (UniProt Q13478); experiment: cell-based or functional assay
T1 sequence (looked up) 1: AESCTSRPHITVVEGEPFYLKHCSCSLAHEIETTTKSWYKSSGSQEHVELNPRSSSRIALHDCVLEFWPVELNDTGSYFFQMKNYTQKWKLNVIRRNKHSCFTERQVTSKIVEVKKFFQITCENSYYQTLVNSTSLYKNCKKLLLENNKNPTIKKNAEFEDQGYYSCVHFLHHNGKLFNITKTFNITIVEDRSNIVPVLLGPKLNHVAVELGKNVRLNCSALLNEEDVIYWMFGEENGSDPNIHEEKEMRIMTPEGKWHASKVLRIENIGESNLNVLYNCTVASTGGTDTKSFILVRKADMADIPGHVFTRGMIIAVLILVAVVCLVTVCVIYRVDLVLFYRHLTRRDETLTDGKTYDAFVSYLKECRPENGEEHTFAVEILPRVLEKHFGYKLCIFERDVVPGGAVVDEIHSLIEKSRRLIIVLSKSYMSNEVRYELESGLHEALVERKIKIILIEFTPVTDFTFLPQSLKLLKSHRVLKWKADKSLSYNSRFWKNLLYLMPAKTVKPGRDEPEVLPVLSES
T1 sequence (looked up) 2: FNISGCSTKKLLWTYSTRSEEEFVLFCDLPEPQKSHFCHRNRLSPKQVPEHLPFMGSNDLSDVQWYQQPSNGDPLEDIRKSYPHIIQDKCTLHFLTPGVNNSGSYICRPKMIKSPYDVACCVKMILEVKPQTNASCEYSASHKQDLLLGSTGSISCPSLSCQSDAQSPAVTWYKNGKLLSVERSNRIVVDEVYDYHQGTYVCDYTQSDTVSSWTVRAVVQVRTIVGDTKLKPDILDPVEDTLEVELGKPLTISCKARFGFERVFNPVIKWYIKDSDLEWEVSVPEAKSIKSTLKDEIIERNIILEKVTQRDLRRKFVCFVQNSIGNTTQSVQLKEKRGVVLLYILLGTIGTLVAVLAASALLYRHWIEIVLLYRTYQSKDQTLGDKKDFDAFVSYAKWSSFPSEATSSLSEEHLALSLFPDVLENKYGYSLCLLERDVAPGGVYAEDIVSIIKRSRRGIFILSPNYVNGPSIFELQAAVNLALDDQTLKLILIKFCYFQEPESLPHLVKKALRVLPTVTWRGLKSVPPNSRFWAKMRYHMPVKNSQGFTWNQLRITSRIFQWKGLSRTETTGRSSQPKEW

hIL-18BP-hFc (human) = hIL-18BP-hFc (human) (UniProt O95998); experiment: cell-based or functional assay
hIL-18BP-hFc (human), sequence (O95998 31-194 limits assumed): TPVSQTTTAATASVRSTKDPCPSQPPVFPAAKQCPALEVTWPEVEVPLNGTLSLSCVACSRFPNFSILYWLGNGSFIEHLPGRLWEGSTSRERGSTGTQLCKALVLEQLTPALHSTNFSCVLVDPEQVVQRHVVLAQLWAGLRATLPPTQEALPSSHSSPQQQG

wild-type human IL-18, sequence (Q14116 37-193 limits assumed): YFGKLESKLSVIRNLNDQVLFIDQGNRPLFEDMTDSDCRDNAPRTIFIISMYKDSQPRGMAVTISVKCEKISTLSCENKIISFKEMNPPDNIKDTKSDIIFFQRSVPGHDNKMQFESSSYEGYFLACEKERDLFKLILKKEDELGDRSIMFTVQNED

EC50 (nM), PBMC assay (hIFNγ release) [1]: 0.17 nM
EC50 (nM), in vitro IL-18 Receptor Mediated Signaling Assay [1]: 0.066 nM
EC50 (nM) + 1 µg/ml hIL-18BP-hFc, in vitro IL-18 Receptor Mediated Signaling Assay (hIL-18BP-hFc (human)): 8.2 nM
EC50 (nM) in the Presence of 1 µg/mL hIL-18BP-hFc, PBMC assay (hIFNγ release) (hIL-18BP-hFc (human)): 5.9 nM
EC50 Fold Change (+BP/-BP), PBMC assay (hIFNγ release) (hIL-18BP-hFc (human)): 34.7 fold
EC50 Fold Change (+BP/-BP), hIL-18 reporter assay (hIL-18BP-hFc (human)): 83.3 fold
Substance: wild-type human IL-18 (from UniProt Q14116 37-193) (ligand)
